From patent publication US20110200615A1

B1: 1B10.1 IgG (antibody, V domains shown)
VH: QVQLVESGGGVVQPGRSLRLSCAASGFTFSHYGMHWVRQSPGKGLEWVAVIWYDGRNPYYAASVKGRFTISRDNDKNTLYLQMNSLRAEDTAVYYCVKDLTRFHDTTFGVFEMWGPGTTVTVSS
VL: EIVLTQSPSFVSASVGDRVTITCRASQGISSWLAWYQQKPGKAPKLLIYAASSLQSGVPSRFSGSGSGTEFTLTISSLQPDDFATYYCQQYSSLYTFGQGTKVDIKR
B2: B11E8 IgG (antibody, V domains shown)
VH: EVQLVQSGGGVVQPGRSLRLSCAASGFIFRTYGMHWVRQAPGKGLEWVAFVSSDGNNKFYSDSVKGRFTISRDNAKNTLYLQMNSLETEDTAMYYCAKDRYPIDCSGGSCFSYGMDVWGQGTTVTVSS
VL: EIVLTQSPATLSVSPGERATLSCRASQSVSKFLAWYQQKRGQAPRLLIYGASTRATGIPARFSGSGSGTEFALTISSLQSEDFADYYCQQYDNWPITFGQGTRLEIKR
B3: 2B23 IgG (antibody, V domains shown)
VH: EVQLLESGGGLVQPGGSLRLSCAASGFTFSNYPMSWVRQAPGKGLAWVSSLTASGDNTFYADSVKGRFTISRDNSNNTLYLQMHSLRAEDTAVYYCAKALVGRYDISTGYYRPVMDSWGQGTLVTVSS
VL: DIQMTQSPPSLSASVGDRVTITCRTSQGFTSALAWYQQKPGEPPKLLIYDASKLESGVPSRFSGSGSGTNFALTISSLQPEDFATYFCQQSNSYPLTFGGGTKVEIKR
B4: 2B25.1 IgG (antibody, V domains shown)
VH: QVQLQESGPGLVKPSQTLSLSCSVSGASITSGTFYWSWIRQHPGKDLEWIGYIYYSGTTYYNPSLKSRVTLSVDTSKNQFSLKVTSLTAADTAVYHCARGVPIYDSSGTYRGTYFDYWGQGTLVTVSS
VL: ESVLTQPPSVSAAPGQKVTISCSGSSSNIGNNYVSWYQQLPGTAPKLLIYDNNRRPSGIPDRFSGSKSGTSATLGITGLQTGDEADYYCGTWDSSLSEVVFGGGTKVTVLG
B5: B12.1 IgG (antibody, V domains shown)
VH: QVNLRESGGGVVQPGRSLRLSCAASGFTFSSYALHWVRQTPGKGLEWVALISYDGSNKYYADSVKGRFTISRDNSKNMLYLQMNSLRAEDTAVYYCAKDRSHYGDYVGYLDYWGQGTLVTVSS
VL: AYVLTQPPSVSVAPGKTAAITCEGNNVGNKNVHWYQQRPGQAPVLVVHDDSDRPSGIPERFSGSNSGNTATLTINRVEAGDEADYYCQVWDSSSAQWVFGGGTKLTVLG
B6: 1B18 IgG (antibody, V domains shown)
VH: EVQLVQSGGGLVQPGGSRRLSCAASGFYFNAYWMTWVRQAPGKGLEWVANINLDGTEIYYLDSVKGRFTVSRDNVKNSVFLQMSSLRVEDTAVYFCARLEWGGRNGWVSPWGQGTLVTVSS
VL: DVVMTQSPSSVSASVGDRVTITCRASQSISSYLNWYQQRPGKAPKLLIFAASSLQSAVPSRFSGSGSGTDFTLTISSLQPEDFATYYCQQSYSTPPTFGQGTKVEIKR
B7: 2B24 scFv (yeast displayed) (scFv)
scFv: QVQLVESGGGVVQPGRSLRLSCAASGLTFSVYGMHWVRQAPGKGLEWVAVISHTGSEEYYADSVKGRFSISRDNSNNTLFLQMNSLRPEDTAVYYCVKDGPMAAIPFYYFDFWGQGTLVTVSSGGGGSGGGGSGGGGSQSVVTQPPSVSAAPGQKVTISCSGSSSNIGNNYVSWYQQLPGTAPKLLIYDNNKRPSGIPDRFSGSKSGTSATLGITGLQTGDEADYYCGTWDSSLSAGVFGGGTKLTVLG
B8: 1B10 scFv (yeast displayed) (scFv)
scFv: QVQLVESGGGVVQPGRSLRLSCAASGFTFSHYGMHWVRQSPGKGLEWVAVIWYDGRNPYYAASVKGRFTISRDNDKNTLYLQMNSLRAEDTAVYYCVKDLTRFHDTTFGVFEMWGPGTTVTVSSGGGGSGGGGSGGGGSEIVLTQSPSSLSASVGDRITITCRASQSISSWLAWYQQKPGKAPMVLIYKASSLENGVPSRFSGSGSGTEFTLTISSLQPDDFATYYCQQYSTYSRTFGQGTKVEIKR
B9: 2B27 scFv (yeast displayed) (scFv)
scFv: EVQLQESGPGLVKPSETLSVTCAVSGGSISSSNYSWAWIRQPPGKGLEWIGTMYYSGSTHYHPSLKSRVTISVDTSKSQLSLKLSSVTAADTAVYYCARRRLLGPSPYYFDYWGQGTLVTVSSGGGGSGGGGSGGGGSQSVVTQPPSVSGAPGQRVTISCSGSSSNIGAGYDVHWYQQLPGTAPKLLIYGNNNRPSGVPDRFSGSKSGTSASLAITGLQAEDEADYYCQSYDSSLSAYVFGTGTKLTVLG
B10: 2B23 scFv (yeast displayed) (scFv)
scFv: EVQLLESGGGLVQPGGSLRLSCAASGFTFSNYPMSWVRQAPGKGLAWVSSLTASGDNTFYADSVKGRFTISRDNSNNTLYLQMHSLRAEDTAVYYCAKALVGRYDISTGYYRPVMDSWGQGTLVTVSSGGGGSGGGGSGGGGSDIQMTQSPPSLSASVGDRVTITCRTSQGFTSALAWYQQKPGEPPKLLIYDASKLESGVPSRFSGSGSGTNFALTISSLQPEDFATYFCQQSNSYPLTFGGGTKVEIKR
B11: 2B25 scFv (yeast displayed) (scFv)
scFv: QVQLQESGPGLVKPSQTLSLSCSVSGASITSGTFYWSWIRQHPGKDLEWIGYIYYSGTTYYNPSLKSRVTLSVDTSKNQFSLKVTSLTAADTAVYHCARGVPIYDSSGTYRGTYFDYWGQGTLVTVSSGGGGSGGGGSGGGGSQPGLTQPPSASGTPGQRVTISCSGSSSNVGSNTVNWYQQLPGTAPKLLIYRNDQRPSGVPDRFSGSKSGASASLAISGLRSEDEADYYCAAWDDSLNGLLFGGGTQLTVLG
B12: 1B11 scFv (yeast displayed) (scFv)
scFv: QVQLLQSAGGVVQPGRSLRLSCAASGFIFRTYGMHWVRQAPGKGLEWVAFVSSDGNNKFYSDSVKGRFTIPRDNAKNTLYLQMNSLETEDTAVYYCAKDRYPIDCSGGSCFSYGMDVWGQGTTVTVSSGGGGSGGGGSGGGGSDIVMTQSPSTLSASVGDRVTVTCRASQSINSWLAWYQQKPGKAPKLLIYEASSLESGVPSRFSGSGSGTEFTLTISSLQPDDFATYYCQQYDSYWLTFGGGTKVEIK
B13: 1B18 scFv (yeast displayed) (scFv)
scFv: EVQLVQSGGGLVQPGGSRRLSCAASGFYFNAYWMTWVRQAPGKGLEWVANINLDGTEIYYLDSVKGRFTVSRDNVKNSVFLQMSSLRVEDTAVYFCARLEWGGRNGWVSPWGQGTLVTVSSGGGGSGGGGSGGGGSDVVMTQSPSSVSASVGDRVTITCRASQSISSYLNWYQQRPGKAPKLLIFAASSLQSAVPSRFSGSGSGTDFTLTISSLQPEDFATYYCQQSYSTPPTFGQGTKVEIKR

The binders below were run against Botulinum neurotoxin type B, subtype B3 (BoNT/B3) (Clostridium botulinum) (assay: KinExA flow fluorimetry; IgG in solution).

First: B1
Second: B2
The Kd of the first is 77-fold higher: 1.2 nM for the first, 0.0156 nM for the second. The second binds more tightly here.

First: B3
Second: B4
The Kd of the first is 2.7-fold higher: 0.048 nM for the first, 0.0177 nM for the second.

First: B5
Second: B6
The Kd of the first is 21-fold lower: 0.0462 nM for the first, 0.972 nM for the second.

Each binder was assayed against Botulinum neurotoxin type B, subtype B4 (BoNT/B4) (Clostridium botulinum) (assay: KinExA flow fluorimetry; IgG in solution).

Compared with B1, B3 is 120-fold higher in Kd: 0.00047 nM for the first, 0.0552 nM for the second.

First: B4
Second: B5
The Kd of the first is 21-fold lower: 0.03 nM for the first, 0.625 nM for the second.

With B6 the Kd was 0.021 nM.

These binders were tested against Botulinum neurotoxin type B, subtype B3 (BoNT/B3) (Clostridium botulinum) (assay: flow cytometry; yeast-displayed scFv, soluble toxin).

Compared with B7, B8 is higher in Kd: 4 nM for the first, over 5000 nM for the second.

First: B9
Second: B10
The Kd of the first is 9.3-fold higher: 2.32 nM for the first, 0.25 nM for the second. The second binds more tightly here.

Compared with B11, B12 is 4.8-fold higher in Kd: 0.93 nM for the first, 4.43 nM for the second. The first binds more tightly here.

Binder B13 has a Kd of 3.04 nM.

Each binder was assayed against Botulinum neurotoxin type B, subtype B4 (BoNT/B4) (Clostridium botulinum) in the same assay as above.

First: B7
Second: B8
The Kd of the first is 6.5-fold lower: 0.72 nM for the first, 4.69 nM for the second. The first binds more tightly here.

Compared with B9, B10 is 4.1-fold lower in Kd: 0.77 nM for the first, 0.19 nM for the second.

First: B11
Second: B13
The Kd of the first is 2.5-fold lower: 0.68 nM for the first, 1.7 nM for the second.
